{"source": "paper PMC9652321", "about": "“Structural basis of human SNAPc recognizing proximal sequence element of snRNA promoter”", "molecules": {"B1": {"name": "PSE 8Sub (dsDNA)", "DNA 1": "TGCTTACATGAACTTCCCATCATTT", "DNA 2": "AAATGATGGGAAGTTCATGTAAGCA"}, "B2": {"name": "25 bp hU6-1 PSE (dsDNA)", "DNA 1": "TGCTTACCGTAACTTGAAAGTATTT", "DNA 2": "AAATACTTTCAAGTTACGGTAAGCA"}, "B3": {"name": "PSE 6Sub (dsDNA)", "DNA 1": "TGCTTACCTGAACTTGCCATCATTT", "DNA 2": "AAATGATGGCAAGTTCAGGTAAGCA"}}, "key": {"[1]": {"target": "T1, mSNAPc#2 4Mu Y389A;R445A;R151A;W350A (Homo sapiens) (UniProt Q5SXM2+Q92966+Q16533+O75971)", "T1 sequence 1": "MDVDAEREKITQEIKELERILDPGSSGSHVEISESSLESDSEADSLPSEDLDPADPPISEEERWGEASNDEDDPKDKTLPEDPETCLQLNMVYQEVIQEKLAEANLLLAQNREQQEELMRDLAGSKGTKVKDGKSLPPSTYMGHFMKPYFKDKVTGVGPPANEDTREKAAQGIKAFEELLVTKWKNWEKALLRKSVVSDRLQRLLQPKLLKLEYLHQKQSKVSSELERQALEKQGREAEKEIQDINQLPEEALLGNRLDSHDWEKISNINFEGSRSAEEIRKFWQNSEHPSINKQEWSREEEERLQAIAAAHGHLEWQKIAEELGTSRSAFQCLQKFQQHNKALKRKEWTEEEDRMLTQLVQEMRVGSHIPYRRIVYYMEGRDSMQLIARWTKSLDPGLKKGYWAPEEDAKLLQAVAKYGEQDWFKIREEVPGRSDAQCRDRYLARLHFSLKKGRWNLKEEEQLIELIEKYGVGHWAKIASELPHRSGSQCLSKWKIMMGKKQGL", "T1 sequence 2": "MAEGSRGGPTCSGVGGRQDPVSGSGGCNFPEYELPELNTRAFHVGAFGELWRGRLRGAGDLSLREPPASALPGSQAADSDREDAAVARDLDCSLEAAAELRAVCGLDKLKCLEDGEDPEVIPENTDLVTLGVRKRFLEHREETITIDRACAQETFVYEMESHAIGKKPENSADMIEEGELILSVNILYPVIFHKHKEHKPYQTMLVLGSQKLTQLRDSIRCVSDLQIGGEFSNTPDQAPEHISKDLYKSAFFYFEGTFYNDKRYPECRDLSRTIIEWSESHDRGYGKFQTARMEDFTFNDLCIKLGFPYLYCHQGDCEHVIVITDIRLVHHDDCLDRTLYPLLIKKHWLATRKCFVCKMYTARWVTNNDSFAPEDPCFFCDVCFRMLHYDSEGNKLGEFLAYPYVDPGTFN", "T1 sequence 3": "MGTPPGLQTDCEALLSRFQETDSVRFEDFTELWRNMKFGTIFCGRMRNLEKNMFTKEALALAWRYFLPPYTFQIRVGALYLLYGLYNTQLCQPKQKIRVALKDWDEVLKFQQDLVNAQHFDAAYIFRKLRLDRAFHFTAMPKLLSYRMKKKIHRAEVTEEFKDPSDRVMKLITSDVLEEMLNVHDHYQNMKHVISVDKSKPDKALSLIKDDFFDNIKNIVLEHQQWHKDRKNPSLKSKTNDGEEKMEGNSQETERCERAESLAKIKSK", "T1 sequence 4": "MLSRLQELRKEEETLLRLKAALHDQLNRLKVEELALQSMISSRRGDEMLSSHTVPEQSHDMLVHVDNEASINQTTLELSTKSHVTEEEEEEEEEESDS", "assay": "SPR", "conditions": "EMSA: 100 mM KCl, 25 mM HEPES-K pH 7.6, 12.5 mM MgCl2, 10 uM ZnCl2, 0.1 mM EDTA, 10% glycerol, 3 mM DTT, 0.5 mM PMSF, 50 nM DNA, RT 30 min; SPR: 100 mM KCl, 12."}, "[2]": {"target": "T2, mSNAPc#2 5Mu Y389A;R445A;R151A;K194A;W350A (Homo sapiens) (UniProt Q5SXM2+Q92966+Q16533+O75971)", "T2 sequence 1": "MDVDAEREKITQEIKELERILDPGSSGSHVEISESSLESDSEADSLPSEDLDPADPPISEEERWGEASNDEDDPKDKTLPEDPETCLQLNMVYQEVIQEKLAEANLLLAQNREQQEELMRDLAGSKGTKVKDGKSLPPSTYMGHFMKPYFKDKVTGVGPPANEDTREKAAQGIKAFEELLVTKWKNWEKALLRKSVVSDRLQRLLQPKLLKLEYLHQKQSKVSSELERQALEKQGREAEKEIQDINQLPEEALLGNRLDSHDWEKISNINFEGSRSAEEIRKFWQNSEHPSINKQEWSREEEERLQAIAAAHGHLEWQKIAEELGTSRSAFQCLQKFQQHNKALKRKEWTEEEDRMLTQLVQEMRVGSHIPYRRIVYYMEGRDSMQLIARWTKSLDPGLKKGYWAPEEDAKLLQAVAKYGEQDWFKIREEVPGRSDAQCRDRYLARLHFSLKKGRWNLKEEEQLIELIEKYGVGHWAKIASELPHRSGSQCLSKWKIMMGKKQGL", "T2 sequence 2": "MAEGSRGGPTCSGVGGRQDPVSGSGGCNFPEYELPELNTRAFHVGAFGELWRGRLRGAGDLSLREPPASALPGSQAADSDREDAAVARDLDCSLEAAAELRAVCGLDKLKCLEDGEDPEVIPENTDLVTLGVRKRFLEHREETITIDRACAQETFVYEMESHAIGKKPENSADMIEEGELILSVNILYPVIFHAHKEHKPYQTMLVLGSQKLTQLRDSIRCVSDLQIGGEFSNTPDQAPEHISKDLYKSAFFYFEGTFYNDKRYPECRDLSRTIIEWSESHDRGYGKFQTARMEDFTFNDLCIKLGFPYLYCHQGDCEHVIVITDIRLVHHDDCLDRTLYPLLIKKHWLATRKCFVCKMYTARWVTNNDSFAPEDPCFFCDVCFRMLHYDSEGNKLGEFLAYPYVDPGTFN", "T2 sequence 3": "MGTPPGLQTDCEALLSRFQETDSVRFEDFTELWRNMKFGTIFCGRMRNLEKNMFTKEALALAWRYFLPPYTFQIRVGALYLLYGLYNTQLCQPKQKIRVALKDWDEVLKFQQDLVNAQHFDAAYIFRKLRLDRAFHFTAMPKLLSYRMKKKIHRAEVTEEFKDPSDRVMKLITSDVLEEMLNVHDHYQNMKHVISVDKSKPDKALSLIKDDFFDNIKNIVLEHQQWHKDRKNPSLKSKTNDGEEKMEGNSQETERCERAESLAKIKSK", "T2 sequence 4": "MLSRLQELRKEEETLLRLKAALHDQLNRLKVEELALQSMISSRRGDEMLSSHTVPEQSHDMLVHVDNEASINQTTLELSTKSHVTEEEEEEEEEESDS", "assay": "SPR", "conditions": "EMSA: 100 mM KCl, 25 mM HEPES-K pH 7.6, 12.5 mM MgCl2, 10 uM ZnCl2, 0.1 mM EDTA, 10% glycerol, 3 mM DTT, 0.5 mM PMSF, 50 nM DNA, RT 30 min; SPR: 100 mM KCl, 12."}, "mSNAPc#2 WT": {"target": "T3, mSNAPc#2 WT (Homo sapiens, UniProt Q5SXM2;Q92966;Q16533;O75971 1-505;1-411;1-268;1-98)", "T3 sequence 1": "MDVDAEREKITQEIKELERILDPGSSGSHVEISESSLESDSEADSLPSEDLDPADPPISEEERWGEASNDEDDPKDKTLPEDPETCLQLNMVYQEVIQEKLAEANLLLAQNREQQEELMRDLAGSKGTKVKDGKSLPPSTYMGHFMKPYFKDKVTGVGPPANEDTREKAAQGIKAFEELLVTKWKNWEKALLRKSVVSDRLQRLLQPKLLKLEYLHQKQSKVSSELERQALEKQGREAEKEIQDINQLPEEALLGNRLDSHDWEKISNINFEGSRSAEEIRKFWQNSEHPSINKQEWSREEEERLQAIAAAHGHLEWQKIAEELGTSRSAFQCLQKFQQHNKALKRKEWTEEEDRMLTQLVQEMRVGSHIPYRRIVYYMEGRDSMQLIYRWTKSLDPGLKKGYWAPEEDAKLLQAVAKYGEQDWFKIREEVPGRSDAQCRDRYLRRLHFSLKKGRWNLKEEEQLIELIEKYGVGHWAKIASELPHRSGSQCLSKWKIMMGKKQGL", "T3 sequence 2": "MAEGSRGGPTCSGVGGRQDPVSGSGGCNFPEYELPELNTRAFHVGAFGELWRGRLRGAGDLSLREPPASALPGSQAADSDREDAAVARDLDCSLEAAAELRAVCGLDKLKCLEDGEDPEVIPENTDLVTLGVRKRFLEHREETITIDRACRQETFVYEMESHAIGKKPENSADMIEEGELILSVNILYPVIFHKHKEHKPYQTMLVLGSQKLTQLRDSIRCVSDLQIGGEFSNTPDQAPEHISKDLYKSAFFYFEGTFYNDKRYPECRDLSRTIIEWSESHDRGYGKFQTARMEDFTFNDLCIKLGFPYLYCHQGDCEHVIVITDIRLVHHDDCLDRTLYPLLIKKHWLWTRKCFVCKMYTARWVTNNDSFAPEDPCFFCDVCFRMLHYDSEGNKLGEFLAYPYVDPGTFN", "T3 sequence 3": "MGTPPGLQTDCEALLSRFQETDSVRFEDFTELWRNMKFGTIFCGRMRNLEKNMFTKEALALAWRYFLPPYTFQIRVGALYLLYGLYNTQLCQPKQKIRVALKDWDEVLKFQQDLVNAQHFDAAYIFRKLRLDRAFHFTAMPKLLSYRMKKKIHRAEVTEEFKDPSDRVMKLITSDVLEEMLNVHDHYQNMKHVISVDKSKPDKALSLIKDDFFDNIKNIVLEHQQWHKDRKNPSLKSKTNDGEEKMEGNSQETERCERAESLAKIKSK", "T3 sequence 4": "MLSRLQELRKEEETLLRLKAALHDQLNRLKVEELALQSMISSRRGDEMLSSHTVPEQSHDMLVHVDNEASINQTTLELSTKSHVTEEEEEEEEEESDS", "assay": "EMSA; 200 and 1000 nM protein; EMSA: 100 mM KCl, 25 mM HEPES-K pH 7.6, 12.5 mM MgCl2, 10 uM ZnCl2, 0.1 mM EDTA, 10% glycerol, 3 mM DTT, 0.5 mM PMSF, 50 nM DNA, RT 30 min; SPR: 100 mM KCl, 12.5 mM MgCl2, 10 uM ZnCl2, 0.1 mM EDTA, 0.05% P20, 25 C", "conditions": "protein: recombinant; tags: FLAG N-term SNAP190; 6xHis N-term SNAP43; copies: 1;1;1;1; label: 5'-FAM"}, "mSNAPc#11 (rod module)": {"target": "T4, mSNAPc#11 (rod module) (Homo sapiens, UniProt Q5SXM2;Q16533;O75971 1-143;148-268;1-98)", "T4 sequence 1": "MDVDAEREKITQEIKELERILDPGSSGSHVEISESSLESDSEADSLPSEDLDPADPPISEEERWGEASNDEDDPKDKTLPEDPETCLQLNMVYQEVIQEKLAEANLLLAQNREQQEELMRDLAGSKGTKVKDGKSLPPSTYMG", "T4 sequence 2": "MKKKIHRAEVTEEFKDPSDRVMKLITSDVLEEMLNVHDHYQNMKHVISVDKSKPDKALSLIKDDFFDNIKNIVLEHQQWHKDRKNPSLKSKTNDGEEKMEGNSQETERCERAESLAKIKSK", "T4 sequence 3": "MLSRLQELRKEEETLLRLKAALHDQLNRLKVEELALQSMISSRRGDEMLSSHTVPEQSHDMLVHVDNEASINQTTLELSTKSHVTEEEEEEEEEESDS", "assay": "EMSA; 200 and 800 nM protein; EMSA: 100 mM KCl, 25 mM HEPES-K pH 7.6, 12.5 mM MgCl2, 10 uM ZnCl2, 0.1 mM EDTA, 10% glycerol, 3 mM DTT, 0.5 mM PMSF, 50 nM DNA, RT 30 min; SPR: 100 mM KCl, 12.5 mM MgCl2, 10 uM ZnCl2, 0.1 mM EDTA, 0.05% P20, 25 C", "conditions": "protein: recombinant; tags: Strep SNAP19; MBP SNAP190; MBP N-term SNAP43; copies: 1;1;1; label: 5'-FAM on positive strand (EMSA)"}}, "data": [{"molecule": "TGCTTACCGTAACTTGAAAGTATTT (double strand) [25 bp hU6-1 PSE (SPR)]", "values": [{"measurement": "Kd", "setting": "[1]", "value": 8.91, "unit": "µM"}, {"measurement": "Kd", "setting": "[2]", "value": 49, "unit": "µM"}]}, {"molecule": "B1", "values": [{"measurement": "binding result", "setting": "mSNAPc#2 WT", "value": "no binding"}]}, {"molecule": "B2", "values": [{"measurement": "binding result", "setting": "mSNAPc#11 (rod module)", "value": "no binding"}]}, {"molecule": "B3", "values": [{"measurement": "binding result", "setting": "mSNAPc#2 WT", "value": "no binding"}]}]}
